This passage reports Kd and EC50 results from PMC4073494.

Broadly, the Kd is the free concentration of one partner at which half of the binding sites on the other are occupied at equilibrium, for simple one-to-one binding. The EC50 is the concentration that produces a half-maximal response. The low end stands for a more potent agent, the high end for a less potent agent.

One test concerns the target EED (Homo sapiens) (UniProt O75530). As to conditions: cited from earlier work.
The target in test [1] is purified full-length EED (AlphaScreen) (UniProt O75530). As to the kind of experiment: AlphaScreen or HTRF. (In general: In Alpha technology, singlet oxygen from a donor bead excites a nearby acceptor bead.)
Sequence of purified full-length EED (AlphaScreen) (O75530 whole entry): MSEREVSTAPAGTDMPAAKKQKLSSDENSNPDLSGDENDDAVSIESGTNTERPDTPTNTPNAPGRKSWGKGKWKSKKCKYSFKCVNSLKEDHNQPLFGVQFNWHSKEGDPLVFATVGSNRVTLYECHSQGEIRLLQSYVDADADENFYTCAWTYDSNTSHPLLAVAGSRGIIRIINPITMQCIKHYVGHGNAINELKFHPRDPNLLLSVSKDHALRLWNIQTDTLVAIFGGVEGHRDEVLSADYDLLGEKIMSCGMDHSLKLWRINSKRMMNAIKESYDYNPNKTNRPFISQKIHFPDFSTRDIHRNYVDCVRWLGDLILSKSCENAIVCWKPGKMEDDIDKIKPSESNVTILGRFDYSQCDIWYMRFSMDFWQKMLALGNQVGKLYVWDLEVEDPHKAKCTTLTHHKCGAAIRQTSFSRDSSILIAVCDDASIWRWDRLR

Sequence of EZH2 39-68 (Q15910 39-68): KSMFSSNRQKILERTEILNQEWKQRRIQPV
Sequence of EED (Homo sapiens) (O75530 2-441): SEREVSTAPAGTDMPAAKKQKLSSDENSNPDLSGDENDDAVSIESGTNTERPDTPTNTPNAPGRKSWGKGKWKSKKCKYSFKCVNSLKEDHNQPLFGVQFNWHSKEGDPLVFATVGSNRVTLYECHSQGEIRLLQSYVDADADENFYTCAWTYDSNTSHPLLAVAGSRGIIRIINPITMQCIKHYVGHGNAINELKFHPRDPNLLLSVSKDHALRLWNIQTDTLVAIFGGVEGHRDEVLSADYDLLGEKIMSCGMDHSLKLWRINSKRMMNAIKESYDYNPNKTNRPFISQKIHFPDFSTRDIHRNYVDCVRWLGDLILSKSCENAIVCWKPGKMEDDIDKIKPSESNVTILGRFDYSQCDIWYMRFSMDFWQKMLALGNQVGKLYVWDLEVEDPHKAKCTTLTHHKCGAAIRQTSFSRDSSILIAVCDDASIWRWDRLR

Regarding EZH2 39-68 (from UniProt Q15910), the dissociation constant (Kd) in the test with EED (Homo sapiens) is 380 nM. On to “unlabeled full-length RING1B (from UniProt Q99496 1-336) (natural protein)”, for which the EC50 in test [1] is 605 nM.
